# Measured values: PMC5500548, “Facile Control over the Supramolecular Ordering of Self-assembled Peptide Scaffolds by Simultaneous Assembly with a Polysacharride” (Scientific Reports, 2017)
# No end group written: not given here. *: point of attachment. Fmoc = O=C(OCC1c2ccccc2-c2ccccc21)*
# Molecular target: the molecule itself
# Assay: transmission electron microscopy + atomic force microscopy; hydrogel of 10 mg/mL Fmoc-FRGDF formed by pH switch to pH 7.4, PBS; dried, negatively stained (TEM) or on HOPG (AFM)
protein,measurement,value
Fmoc-FRGDF (the Fmoc group is kept on the N-terminus; Low molecular weight gelator; also called Fluorenylmethoxycarbonyl (Fmoc) pentapeptide; SAP; source: synthetic peptide (solid phase Fmoc peptide synthesis)) [Fmoc-FRGDF],binding result,binds
